Measurements from patent WO2016167227A1.

Target: human-derived insoluble fibrin (human) (UniProt P02671)
Experiment: ELISA, peroxidase-labelled antibody on fibrin plate; 0.1 μg/mL of 443-2 gave about the signal of 10 μg/mL of the reference

Chain of UniProt P02671 (P02671 36-629 limits assumed, chain 1 of 3): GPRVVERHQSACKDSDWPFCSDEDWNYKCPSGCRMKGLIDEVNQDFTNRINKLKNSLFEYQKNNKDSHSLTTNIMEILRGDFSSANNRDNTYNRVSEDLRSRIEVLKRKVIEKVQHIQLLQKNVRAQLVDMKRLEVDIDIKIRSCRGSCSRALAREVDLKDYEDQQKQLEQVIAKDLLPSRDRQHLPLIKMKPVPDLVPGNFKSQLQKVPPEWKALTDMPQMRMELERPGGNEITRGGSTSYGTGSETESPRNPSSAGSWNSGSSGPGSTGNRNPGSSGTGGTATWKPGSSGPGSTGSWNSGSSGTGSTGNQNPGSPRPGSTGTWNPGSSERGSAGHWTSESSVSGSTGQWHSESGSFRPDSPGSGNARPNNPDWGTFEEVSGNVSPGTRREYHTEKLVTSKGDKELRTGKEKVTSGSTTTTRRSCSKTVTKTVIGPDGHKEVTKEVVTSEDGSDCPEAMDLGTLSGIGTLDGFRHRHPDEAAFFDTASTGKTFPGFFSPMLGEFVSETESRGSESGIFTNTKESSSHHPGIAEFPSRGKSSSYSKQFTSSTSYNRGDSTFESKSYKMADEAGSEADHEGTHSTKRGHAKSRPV
Chain of UniProt P02671 (chain, as listed by the source limits assumed, chain 2 of 3): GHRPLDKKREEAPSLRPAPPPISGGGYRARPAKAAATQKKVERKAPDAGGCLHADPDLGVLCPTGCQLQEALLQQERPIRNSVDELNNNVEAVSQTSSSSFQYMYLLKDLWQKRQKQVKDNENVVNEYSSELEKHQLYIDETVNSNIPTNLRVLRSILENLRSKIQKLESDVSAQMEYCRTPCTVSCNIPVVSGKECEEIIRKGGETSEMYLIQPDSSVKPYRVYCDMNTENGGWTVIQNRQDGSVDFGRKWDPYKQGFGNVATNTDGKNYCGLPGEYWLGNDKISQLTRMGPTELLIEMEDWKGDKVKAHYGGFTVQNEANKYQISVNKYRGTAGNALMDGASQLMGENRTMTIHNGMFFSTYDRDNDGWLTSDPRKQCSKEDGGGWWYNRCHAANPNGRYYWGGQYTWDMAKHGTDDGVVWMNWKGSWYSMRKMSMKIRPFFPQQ
Chain of UniProt P02671 (chain, as listed by the source limits assumed, chain 3 of 3): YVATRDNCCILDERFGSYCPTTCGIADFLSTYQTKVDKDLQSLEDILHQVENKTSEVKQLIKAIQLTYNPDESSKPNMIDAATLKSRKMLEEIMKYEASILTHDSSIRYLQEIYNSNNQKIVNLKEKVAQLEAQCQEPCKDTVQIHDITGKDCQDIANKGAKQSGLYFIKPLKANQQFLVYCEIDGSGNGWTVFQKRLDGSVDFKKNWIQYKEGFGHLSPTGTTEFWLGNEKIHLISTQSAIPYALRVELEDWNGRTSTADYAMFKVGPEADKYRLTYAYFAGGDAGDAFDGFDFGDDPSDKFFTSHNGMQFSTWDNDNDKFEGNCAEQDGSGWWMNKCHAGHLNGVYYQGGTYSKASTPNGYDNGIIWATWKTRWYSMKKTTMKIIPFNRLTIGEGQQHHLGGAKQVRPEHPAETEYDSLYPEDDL

B1: 443-2 antibody (antibody, V domains shown)
VH: QIQLVQSGPELKKPGESVKISCKASGYTFTDYAMNWVKQAPGNGLKWMGWINTQTGKPTYADDFKQRFVFSLETSATTAYLQINNLNIEDTATYFCTRLMDAWGQGASVTVSS
VL: DIVMTQSPSSLAVSAGETVTINCKSSQSLLSSGNQKNYLAWYQQKPGQSPKLLIYLASTRESGVPDRLIGSGSGTDFTLTISSMQAEDLAIYYCQQYYETPHTFGAGTKLELKR
A fold affinity for insoluble fibrin against the 102-10 antibody (printed 102-12) of 100 times was found for B1 in this work.
